Consider 39 variants from the RNAGym collection of RNA variant scans (doi:10.7554/elife.90254).

B1: LINE1-full (parent)
chain: UACGUAGGUGGUUUUCCCCUGAUAGUGCUAAGGGGGCCUGGAAGUUUGGACUGGGCAGAGCUCAACACAGCGUGGCAAAGUGGCUGUGGCUAGACUGCCUCUCUGGAUUCCUCGUCACUCAGCAGGGCAUCUCUGAGAGAAAUGCC

Variants of B1 are the subject of the data set. The data set is described as follows: self-cleavage, relative activity (ratio to wild type); higher = more cleavage; in vitro, sequencing; the parent is a self-cleaving ribozyme.
As to UACGUAGGUGGUUUUCCCCUGAUAGAGCUAAGGGGGCCUGGAAGUUUGGACUGGGCAGAGCUCAACACAGCGUGGCAAAGUGGCUGUGGCUAGACUGCCUCUCUGGAUUCCUUGUCACUCAGCAGGGCAUCUCUGAGAGAAAUGCC, the self-cleavage amounted to 0.86.

For UACGUAGGUGGUUUUCCCCUGAUAGAGCUAAAGGGGCCUGGAAGUUUGGACUGGGCAGAGCUCAACACAGCGUGGCAAAGUGGCUGUGGCUAGACUGCCUCUCUGGAUUCCUCGUCACUCAGCAGGGCAUCUCUGAGAGAAAUGCC, the self-cleavage is 0.44.

On to UACGUAGGUGGUUUUCCCCUGAUAGAGCUAAGGGGGCCUGGAAGUUUGGACUGGGCAGAGCACAACACAGCGUGGCAAAGUGGCUGUGGCUAGACUGCCUCUCUGGAUUCCUCGUCACUCAGCAGGGCAUCUCUGAGAGAAAUGCC, for which the self-cleavage amounted to 0.05.

As to UACGUAGGUGGUUUUCCCCUGAUAGAGCUAAGGGGGCCUGGAAGUUUGGACUGGGCAGAGCUCAACACAGCGUGGCAAAGUGGCUGUGGCUAGGCUGCCUCUCUGGAUUCCUCGUCACUCAGCAGGGCAUCUCUGAGAGAAAUGCC, the self-cleavage is 0.24.

Regarding UACGUAGGUGGUUUUCCCCUGAUAGAGCUAAGGGGGCCUGGAAGUUUGGACUGGGCAGAGCUCAACACAGCGUGGCAAAGUGGCUGUGGCUAGACUGCCUCUCUGGAUUCCUCGUCACUCAGCAGGGCAUCUCUGAGAGAUAUGCC, the self-cleavage was found to be 0.61.

UACGUAGGUGGUUUUCCCCUGAUAGAGCUAAGGGGGCCAGGAAGUUUGGACUGGGCAGAGCUCAACACAGCGUGGCAAAGUGGCUGUGGCUAGACUGCCUCUCUGGAUUCCUCGUCACUCAGCAGGGCAUCUCUGAGAGAAAUGCC: the self-cleavage came out at 0.99.

With UACGUAGGUGGUUUUCCCCUGAUAGAGCUAAGGGGGCCUGGAAGUUUGGACUGGGCAGAGCUCAACACAGCAUGGCAAAGUGGCUGUGGCUAGACUGCCUCUCUGGAUUCCUCGUCACUCAGCAGGGCAUCUCUGAGAGAAAUGCC, the self-cleavage stood at 0.94.

Take UACGUAGGUGGUUUUCCCCUGAUAGAGCUAAGGGGGCCUGGAAGUUUGGACUGGGCAGAGCUCAACACAGCGUGGCUAAGUGGCUGUGGCUAGACUGCCUCUCUGGAUUCCUCGUCACUCAGCAGGGCAUCUCUGAGAGAAAUGCC: the self-cleavage is 0.78.

Turning to UACGUAGGUGGUUUUCCCCUGAUAGAGCUAAGGGGGCCUGGAAGUUUGGACUGGGCAGAGCUCAACACAGCGUGGCCAAGUGGCUGUGGCUAGACUGCCUCUCUGGAUUCCUCGUCACUCAGCAGGGCAUCUCUGAGAGAAAUGCC, the self-cleavage stood at 0.

Turning to UACGUAGGUGGUUUUCCCCUGAUAGAGCUAAGGGGGCCUGGAAGUUUGGACUGGGCAGAGCUCAACACAACGUGGCAAAGUGGCUGUGGCUAGACUGCCUCUCUGGAUUCCUCGUCACUCAGCAGGGCAUCUCUGAGAGAAAUGCC, the self-cleavage is 0.11.

UACGUAGGUGGUUUUCCCCUGAUAGAGCUAAGGGGGCCUGGAAGUUUGGACUGGGCAGAGCUCAACACAGCGUGGCAAAGUGGCUGUGGCUAGACUGCCUCUCUGGAUUCCUCGUCACUCAGCAGAGCAUCUCUGAGAGAAAUGCC: the self-cleavage turned out to be 0.82.

For UACGUAGGUGGUUUUCCCCUGAUAGAGCUAAGGGGGCCUGGAAGUUUGGACUAGGCAGAGCUCAACACAGCGUGGCAAAGUGGCUGUGGCUAGACUGCCUCUCUGGAUUCCUCGUCACUCAGCAGGGCAUCUCUGAGAGAAAUGCC, the self-cleavage came to 1.44.

Regarding UACGUAGGUGGUUUUCCCCUGAUAGAGCUAAGGGGGCCUGGAAAUUUGGACUGGGCAGAGCUCAACACAGCGUGGCAAAGUGGCUGUGGCUAGACUGCCUCUCUGGAUUCCUCGUCACUCAGCAGGGCAUCUCUGAGAGAAAUGCC, the self-cleavage came out at 1.

For the variant UACGUAGGUGGUUUUCCCCUGAUAGAGCUAAGGGGGCCUGGAAGUCUGGACUGGGCAGAGCUCAACACAGCGUGGCAAAGUGGCUGUGGCUAGACUGCCUCUCUGGAUUCCUCGUCACUCAGCAGGGCAUCUCUGAGAGAAAUGCC, the self-cleavage is 1.45.

Consider UACGUAGGUGGUUUUCCCCUGAUAGAGCUAAGGGGGCCUGGAAGUUUGGACUGGGCAGAGCUCAACACAGCGUGGCAAAGUGGCUGUGGCUAGACUGCCUCUCUGGAUUCCUCGUCUCUCAGCAGGGCAUCUCUGAGAGAAAUGCC, for which the self-cleavage turned out to be 0.98.

In the case of UACGUAGGUGGUUUUCCCCUGAUAGAGCUAAGGGGGCCUGGAAGUUUGGACUGGGCAGAGCUCAACACUGCGUGGCAAAGUGGCUGUGGCUAGACUGCCUCUCUGGAUUCCUCGUCACUCAGCAGGGCAUCUCUGAGAGAAAUGCC, the self-cleavage was determined as 0.08.

Turning to UACGUAGGUGGUUUUCCCCUGAUAGAGCUAAGGGGGCCUGGAAGUUUGGACUGGGCAGAGCUCAACACGGCGUGGCAAAGUGGCUGUGGCUAGACUGCCUCUCUGGAUUCCUCGUCACUCAGCAGGGCAUCUCUGAGAGAAAUGCC, the self-cleavage amounted to 0.29.

Take UACGUAGGUGGUUUUCCCCUGAUAGAGCUAAGGGGGCCUGGAAGUUUGGACUGGGCAGAGCUCAACACAGCGUGGCAAAGUGGCUGUGGCUGGACUGCCUCUCUGGAUUCCUCGUCACUCAGCAGGGCAUCUCUGAGAGAAAUGCC: the self-cleavage amounted to 0.05.

Consider UACGUAGGUGGUUUUCCCCUGAUAGAGCUAAGGGGGCCUGGAAGUUUGGACUGGGCAGAGCUCAACACAGCGUGGCAAAGUGGCUGUGGCUAGACUGCCUCUCUGGAUUCCUCGUCACUCAACAGGGCAUCUCUGAGAGAAAUGCC, for which the self-cleavage was determined as 0.72.

Regarding UACGUAGGUGGUUUUCCCCUGAUAGAGCUAAGGGGGCCUGGAAGUUUGGACCGGGCAGAGCUCAACACAGCGUGGCAAAGUGGCUGUGGCUAGACUGCCUCUCUGGAUUCCUCGUCACUCAGCAGGGCAUCUCUGAGAGAAAUGCC, the self-cleavage was 0.8.

On to UACGUAGGUGGUUUUCCCCUGAUAGAGCUAAGGGGGCCUGGAAGUUUGGACUGGGCAGAGCUCAACACAGCGUGGCAAAGUGGCUGUGGCUAAACUGCCUCUCUGGAUUCCUCGUCACUCAGCAGGGCAUCUCUGAGAGAAAUGCC, for which the self-cleavage was determined as 0.

With UACGUAGGUGGUUUUCCCCUGAUAGAGCUAAGGGGGCCUGGAAGUUUGGACUGGGCAGAGCUCAACACAGCGUGGCAAAGUGGCUGUGGCUAGACUGCCUCUCUGGAUUCCUCGUCACUCAGCAGGGCAUCUCUGAGAGAAAUGAC, the self-cleavage was determined as 1.07.

In the case of UACGUAGGUGGUUUUCCCCUGAUAGAGCUAAGGGGGCCUGGAAGUUUGGACUGGGCAGAGCUCAACACAGCGUGGCAAAGUGGCUGUGGCUAGACUGCCUCUCUGGAUUCCUCGUCACUCAGCAGGUCAUCUCUGAGAGAAAUGCC, the self-cleavage was determined as 1.16.

In the case of UACGUAGGUGGUUUUCCCCUGAUAGAGCUAAGGGGCCCUGGAAGUUUGGACUGGGCAGAGCUCAACACAGCGUGGCAAAGUGGCUGUGGCUAGACUGCCUCUCUGGAUUCCUCGUCACUCAGCAGGGCAUCUCUGAGAGAAAUGCC, the self-cleavage was found to be 0.41.

In the case of UACGUAGGUGGUUUUCCCCUGAUAGAGCUAAGGGGGCCUGGAAGUUUGGACUGGGCAGAGCUCAACACAGCGUGGCAAAGUGGCUGUGGCUAGACUGCCUCUCUGGAUUCCUCGUCACUCAGCAGGGCAUCUCUGAAAGAAAUGCC, the self-cleavage was 1.53.

With UACGUAGGUGGUUUUCCCCUGAUAGAGCUAAGGGGGCCUGGAAGAUUGGACUGGGCAGAGCUCAACACAGCGUGGCAAAGUGGCUGUGGCUAGACUGCCUCUCUGGAUUCCUCGUCACUCAGCAGGGCAUCUCUGAGAGAAAUGCC, the self-cleavage is 0.84.

For UACGUAGGUGGUUUUCCCCUGAUAGAGCUAAGGGGGCCUGGAAGCUUGGACUGGGCAGAGCUCAACACAGCGUGGCAAAGUGGCUGUGGCUAGACUGCCUCUCUGGAUUCCUCGUCACUCAGCAGGGCAUCUCUGAGAGAAAUGCC, the self-cleavage was found to be 1.37.

For UACGUAGGUGGUUUUCCCCUGAUAGAGCUAAGGGGGCCUGGAAGUUUGGACUGGACAGAGCUCAACACAGCGUGGCAAAGUGGCUGUGGCUAGACUGCCUCUCUGGAUUCCUCGUCACUCAGCAGGGCAUCUCUGAGAGAAAUGCC, the self-cleavage worked out at 0.25.

As for UACGUAGGUGGUUUUCCCCUGAUAGAGCUAAGGGGGCCUGGAAGUUUGGACUGGGCAGAGCUCAACACAGCGUGGCAAAGUGGCUGUGGUUAGACUGCCUCUCUGGAUUCCUCGUCACUCAGCAGGGCAUCUCUGAGAGAAAUGCC, the self-cleavage is 0.04.

Regarding UACGUAGGUGGUUUUCCCCUGAUAGAGUUAAGGGGGCCUGGAAGUUUGGACUGGGCAGAGCUCAACACAGCGUGGCAAAGUGGCUGUGGCUAGACUGCCUCUCUGGAUUCCUCGUCACUCAGCAGGGCAUCUCUGAGAGAAAUGCC, the self-cleavage is 0.99.

Turning to UACGUAGGUGGUUUUCCCCUGAUAGAGCUAAGGGUGCCUGGAAGUUUGGACUGGGCAGAGCUCAACACAGCGUGGCAAAGUGGCUGUGGCUAGACUGCCUCUCUGGAUUCCUCGUCACUCAGCAGGGCAUCUCUGAGAGAAAUGCC, the self-cleavage amounted to 1.14.

For the variant UACGUAGGUGGUUUUCCCCUGAUAGAGCUAAGGGAGCCUGGAAGUUUGGACUGGGCAGAGCUCAACACAGCGUGGCAAAGUGGCUGUGGCUAGACUGCCUCUCUGGAUUCCUCGUCACUCAGCAGGGCAUCUCUGAGAGAAAUGCC, the self-cleavage was 0.67.

Turning to UACGUAGGUGGUUUUCCCCUGAUAGAGCUAAGGGGGCCUGGAAGUUUGGACUGGGCAGAGCUCAACACAGCGUGGCAAAGUGGCUGUGGCUAGACUGCCUCUCUGGAUUCCUCGUCACUCAGCAGGGCAUCUCUGGGAGAAAUGCC, the self-cleavage was determined as 1.57.

With UACGUAGGUGGUUUUCCCCUGAUAGAGCUAAGGGGGCCUGGAAGUUUGGACUGGGCAGAGCUCAACACAGCGUGGCAAAGUGGCUGUGGCUAGACUGCCUCUCUGGAUUCCUCGUCACUCAGCAGGGCUUCUCUGAGAGAAAUGCC, the self-cleavage was 1.06.

For the variant UACGUAGGUGGUUUUCCCCUGAUAGAGCUAAGGGGGCCUGGAAGUUUGGACUGGGCAGAGCUCAACACAGCGUGGCAAAGUGGCUGUGGCUAGACUGCCUCUCUGGUUUCCUCGUCACUCAGCAGGGCAUCUCUGAGAGAAAUGCC, the self-cleavage came to 1.09.

Take UACGUAGGUGGUUUUCCCCUGAUAGAGCUAAGGGGGCCUGGAAGUUUGGACUGGGCAGAGCUCAACACAGCGUGGCAAAGUGGCUGUGGCUAGACUGCCUCUCUGGGUUCCUCGUCACUCAGCAGGGCAUCUCUGAGAGAAAUGCC: the self-cleavage stood at 1.06.

As for UACGUAGGUGGUUUUCCCCUGAUAGAGCUAAGGGGGCCUGGAAGUUUGGACUGGGCAGAGCUCAACACAGCGUGGCAAAGUUGCUGUGGCUAGACUGCCUCUCUGGAUUCCUCGUCACUCAGCAGGGCAUCUCUGAGAGAAAUGCC, the self-cleavage turned out to be 0.93.

Consider UACGUAGGUGGUUUUCCCCUGAUAGAGCUAAGGGGGCCUGGAAGUUUGGACUGGGCAGAGCUCAACACAGCGUGGCAAAGUGGUUGUGGCUAGACUGCCUCUCUGGAUUCCUCGUCACUCAGCAGGGCAUCUCUGAGAGAAAUGCC, for which the self-cleavage stood at 0.02.

As for UACGUAGGUGGUUUUCCCCUGAUAGAGCUAAGGGGGCCUGGAAGUUUGGACUGGGCAGAGCUUAACACAGCGUGGCAAAGUGGCUGUGGCUAGACUGCCUCUCUGGAUUCCUCGUCACUCAGCAGGGCAUCUCUGAGAGAAAUGCC, the self-cleavage was determined as 0.37.
